This note sets out measurements from article PMC6614449, “Targeting DNAJB9, a novel ER luminal co-chaperone, to rescue ΔF508-CFTR” (Scientific Reports, 2019).

The chains are these.
B1: Na+/H+ Exchange Regulator Factor 1 (on the ProtoArray) (natural protein, UniProt O14745 1-358, looked up)
chain: MSADAAAGAPLPRLCCLEKGPNGYGFHLHGEKGKLGQYIRLVEPGSPAEKAGLLAGDRLVEVNGENVEKETHQQVVSRIRAALNAVRLLVVDPETDEQLQKLGVQVREELLRAQEAPGQAEPPAAAEVQGAGNENEPREADKSHPEQRELRPRLCTMKKGPSGYGFNLHSDKSKPGQFIRSVDPDSPAEASGLRAQDRIVEVNGVCMEGKQHGDVVSAIRAGGDETKLLVVDRETDEFFKKCRVIPSQEHLNGPLPVPFTNGEIQKENSREALAEAALESPRPALVRSASSDTSEELNSQDSPPKQDSTAPSSTSSSDPILDFNISLAMAKERAHQKRSSKRAPQMDWSKKNELFSNL
notes: NHERF1 (EBP50), protein spotted on the ProtoArray; also called NHERF1; EBP50; source: bought: spotted on ProtoArray protein microarray (Invitrogen / ThermoFisher)
B2: DNAJB7 (on the ProtoArray) (natural protein, UniProt Q7Z6W7 1-309, looked up)
chain: MVDYYEVLGLQRYASPEDIKKAYHKVALKWHPDKNPENKEEAERKFKEVAEAYEVLSNDEKRDIYDKYGTEGLNGGGSHFDDECEYGFTFHKPDDVFKEIFHERDPFSFHFFEDSLEDLLNRPGSSYGNRNRDAGYFFSTASEYPIFEKFSSYDTGYTSQGSLGHEGLTSFSSLAFDNSGMDNYISVTTSDKIVNGRNINTKKIIESDQEREAEDNGELTFFLVNSVANEEGFAKECSWRTQSFNNYSPNSHSSKHVSQYTFVDNDEGGISWVTSNRDPPIFSAGVKEGGKRKKKKRKEVQKKSTKRNC
notes: DNAJB7, protein spotted on the ProtoArray; source: bought: spotted on ProtoArray protein microarray (Invitrogen / ThermoFisher)
B3: DNAJB8 (on the ProtoArray) (natural protein, UniProt Q8NHS0 1-232, looked up)
chain: MANYYEVLGVQASASPEDIKKAYRKLALRWHPDKNPDNKEEAEKKFKLVSEAYEVLSDSKKRSLYDRAGCDSWRAGGGASTPYHSPFDTGYTFRNPEDIFREFFGGLDPFSFEFWDSPFNSDRGGRGHGLRGAFSAGFGEFPAFMEAFSSFNMLGCSGGSHTTFSSTSFGGSSSGSSGFKSVMSSTEMINGHKVTTKRIVENGQERVEVEEDGQLKSVTVNGKEQLKWMDSK
notes: DNAJB8, protein spotted on the ProtoArray; source: bought: spotted on ProtoArray protein microarray (Invitrogen / ThermoFisher)

In this assay the target is T1, full length FLAG-CFTR (WT-CFTR) (UniProt P13569 1-1480).
T1 construct: Cystic Fibrosis transmembrane-conductance regulator (CFTR), wild type, 1,480 amino acids; Surface CFTR was probed with anti-FLAG on fixed cells, so the FLAG tag may lie in an extracellular loop; also called FLAG-WT-CFTR; Cystic Fibrosis transmembrane-conductance regulator; source: HEK293 cells stably expressing it; purified on anti-FLAG resin (ProtoArray) or in whole-cell lysate (co-IP)
T1 sequence (P13569 whole entry): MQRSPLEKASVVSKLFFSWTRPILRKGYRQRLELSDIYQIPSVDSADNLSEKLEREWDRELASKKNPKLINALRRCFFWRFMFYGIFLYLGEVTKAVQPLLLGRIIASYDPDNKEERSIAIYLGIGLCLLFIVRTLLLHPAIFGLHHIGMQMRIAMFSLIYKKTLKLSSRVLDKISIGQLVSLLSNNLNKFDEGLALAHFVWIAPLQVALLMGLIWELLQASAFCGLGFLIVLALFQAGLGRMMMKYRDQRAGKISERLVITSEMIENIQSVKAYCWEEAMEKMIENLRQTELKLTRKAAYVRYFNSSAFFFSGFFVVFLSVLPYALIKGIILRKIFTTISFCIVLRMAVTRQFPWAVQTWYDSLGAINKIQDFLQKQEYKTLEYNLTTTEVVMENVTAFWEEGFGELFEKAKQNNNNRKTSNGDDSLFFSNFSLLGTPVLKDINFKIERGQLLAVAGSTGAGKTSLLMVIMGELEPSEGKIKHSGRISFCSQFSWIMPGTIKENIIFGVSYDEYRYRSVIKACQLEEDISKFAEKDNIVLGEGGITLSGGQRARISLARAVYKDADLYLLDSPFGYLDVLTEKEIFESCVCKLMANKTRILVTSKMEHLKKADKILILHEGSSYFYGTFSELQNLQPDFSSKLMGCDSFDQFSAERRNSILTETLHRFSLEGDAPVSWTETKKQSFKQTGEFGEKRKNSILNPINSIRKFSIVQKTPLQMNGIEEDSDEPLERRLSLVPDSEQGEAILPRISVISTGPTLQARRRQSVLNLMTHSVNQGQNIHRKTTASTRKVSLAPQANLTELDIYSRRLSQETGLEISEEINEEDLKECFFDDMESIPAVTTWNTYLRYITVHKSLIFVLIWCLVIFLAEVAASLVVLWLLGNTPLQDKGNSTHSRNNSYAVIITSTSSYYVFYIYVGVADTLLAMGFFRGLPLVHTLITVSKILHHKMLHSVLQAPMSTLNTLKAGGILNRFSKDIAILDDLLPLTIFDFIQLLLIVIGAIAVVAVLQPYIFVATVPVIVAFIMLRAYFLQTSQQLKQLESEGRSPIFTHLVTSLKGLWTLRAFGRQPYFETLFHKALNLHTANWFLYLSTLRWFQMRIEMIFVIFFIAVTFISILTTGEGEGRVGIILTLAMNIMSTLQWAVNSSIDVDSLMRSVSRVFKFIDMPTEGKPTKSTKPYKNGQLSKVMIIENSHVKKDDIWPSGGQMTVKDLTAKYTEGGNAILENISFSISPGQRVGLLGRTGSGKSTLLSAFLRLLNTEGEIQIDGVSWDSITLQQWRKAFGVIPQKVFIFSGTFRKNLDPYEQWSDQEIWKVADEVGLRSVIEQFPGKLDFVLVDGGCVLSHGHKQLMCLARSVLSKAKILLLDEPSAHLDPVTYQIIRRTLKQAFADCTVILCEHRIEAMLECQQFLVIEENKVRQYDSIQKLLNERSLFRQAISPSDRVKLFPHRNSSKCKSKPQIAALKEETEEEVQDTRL
The assay is described as follows: peptide or protein array; ProtoArray protein microarray (Invitrogen / ThermoFisher) probed with purified full length FLAG-CFTR in solution; bound CFTR detected with mouse anti-FLAG monoclonal antibody and Alexa-488 secondary antibody, fluorescence scanner; mean of duplicate. Conditions: both partners purified.
For the molecule B1, the binding result is recorded as “binds”.

B2: the binding result is listed as “binds”.

On to B3, for which the binding result is recorded as “binds”.
